According to patent US20140315185A1, “METHODS AND COMPOSITIONS FOR IMPROVING SPERM FUNCTIONALITY” (ANDROGENIX LTD., priority 2011, published 2014):

Assays:
[1] = system: sperm; settings: added in sufficient concentration and simultaneously with the H2O2; cited from earlier work
[2] = system: bovine sperm; test: Binding of cholesterol-PEG-catalase to sperm, flow cytometry; assay type: cell-based; settings: sperm incubated with 3 mg/ml conjugate at 37° C. for 30 min, unbound removed on Percoll PLUS
Description: 1.5 ml of bovine sperm in liquid extender was carefully placed on top of 4 ml of 60%_Percoll™ PLUS (GE Healthcare) column, and centrifugated for 20 min at 700×g at 20° C. The resulting purified sperm pellet was resuspended in non-capacitating media (NCM; see Table 2) containing 0.1 mg/ml of BSA to a cell concentration of 5×10^7 ml. 200 μl of the purified sperm was mixed with an equal volume of 3 mg/ml cholesterol-PEG5000-FITC-catalase, and incubated light protected at 37° C. for 30 min. The unbound cholesterol-PEG5000-FITC-catalase was removed by layering 400 μl of sperm/cholesterol-PEG5000-FITC-catalase mixture on the top of 500 μl of 60% Percoll™ PLUS column, followed by centrifugation for 20 min at 700×g at 20° C. The sperm pellet was resuspended in NCM containing 0.1 mg/ml of BSA to a total volume of 400 μl. The binding of cholesterol-PEG5000-FITC-catalase to sperm was analysed by flow cytometry and catalase activity assay. […] The catalase activity of cholesterol-PEG5000-FITC-catalase bound sperm was measured as described in Example 1. 79 units of catalase activity were measured in 2.5×10^6 sperm cells after binding with cholesterol-PEG5000-FITC-catalase, whereas no catalase activity was detected in control sperm without addition of cholesterol-PEG5000-FITC-catalase.

[3] = system: bovine sperm; test: Catalase activity assay of conjugate-bound sperm; assay type: cell-based; settings: in 2.5×10^6 sperm cells after binding and removal of unbound conjugate
Description: (§1) Recovery of the cholesterol-PEG5000-FITC-catalase was determined by Coomassie staining and catalase activity assay. For the catalase activity assay, 0.5 μl of test samples and serially diluted bovine catalase (Sigma) were placed in a microtitre plate, and incubated with 50 μl of 10 ng/ml of streptavidin-HRP (Biosource) and 50 μl of TMB substrate (Invitrogen) for 5 min. The plate was read at 450 nm on an EnVision plate reader (PerkinElmer) after stopping the reaction with 50 μl of 2 M sulfuric acid. Catalase activity of the test sample was calculated from the standard curve generated with known concentrations of bovine catalase.
1.5 ml of bovine sperm in liquid extender was carefully placed on top of 4 ml of 60%_Percoll™ PLUS (GE Healthcare) column, and centrifugated for 20 min at 700×g at 20° C. […] The binding of cholesterol-PEG5000-FITC-catalase to sperm was analysed by flow cytometry and catalase activity assay. […] The catalase activity of cholesterol-PEG5000-FITC-catalase bound sperm was measured as described in Example 1. 79 units of catalase activity were measured in 2.5×10^6 sperm cells after binding with cholesterol-PEG5000-FITC-catalase, whereas no catalase activity was detected in control sperm without addition of cholesterol-PEG5000-FITC-catalase.

[4] = system: Jurkat cells; test: Catalase activity assay of treated Jurkat cells; assay type: cell-based, human; settings: units per 2.5×10^6 cells; incubated at 37° C. for 30 min, then centrifuged and resuspended
Description: as §1
Jurkat cells (ATCC, TIB-152; human T lymphocyte cell line) were cultured in RPMI-1640 media with 10% fetal calf serum. For analysis, cells were removed from culture, centrifuged at 700×g for 5 min, the culture media was removed and cells were resuspended at a concentration of 5×10^7 cells/ml in PBS. […] The Jurkat cells were analyzed by both flow cytometry and catalase activity assay.
The catalase activity of the treated Jurkat cells was measured as described in Example 1. 50 μl of 5×10^7 cells/ml of each test sample was analysed in the assay and the catalase activity contained in each of the Jurkat samples was calculated from the standard curve. […]

| Molecule | rescue of H2O2-induced loss of motility [1] | binding to live sperm (Hoechst 33258 negative) [2] | catalase activity of bound sperm [3] | catalase activity in Jurkat cells [4] |
| --- | --- | --- | --- | --- |
| N[C@@H](CCC(=O)N[C@@H](CS)C(=O)NCC(=O)O)C(=O)O [glutathione, reference compound] | able to rescue the loss of motility |  |  |  |
| cholesterol-PEG5000-FITC-catalase: Bovine catalase covalently labelled with cholesterol-PEG5000-NHS-FITC; 4.0 to 5.4 cholesterol-PEG per catalase monomer (conjugate, UniProt P00432 2-527, looked up, cholesterol-PEG5000-FITC label, Bovine catalase covalently labelled with cholesterol-PEG5000-NHS-FITC; 4.0 to 5.4 cholesterol-PEG per catalase monomer) Catalase: ADNRDPASDQMKHWKEQRAAQKPDVLTTGGGNPVGDKLNSLTVGPRGPLLVQDVVFTDEMAHFDRERIPERVVHAKGAGAFGYFEVTHDITRYSKAKVFEHIGKRTPIAVRFSTVAGESGSADTVRDPRGFAVKFYTEDGNWDLVGNNTPIFFIRDALLFPSFIHSQKRNPQTHLKDPDMVWDFWSLRPESLHQVSFLFSDRGIPDGHRHMNGYGSHTFKLVNANGEAVYCKFHYKTDQGIKNLSVEDAARLAHEDPDYGLRDLFNAIATGNYPSWTLYIQVMTFSEAEIFPFNPFDLTKVWPHGDYPLIPVGKLVLNRNPVNYFAEVEQLAFDPSNMPPGIEPSPDKMLQGRLFAYPDTHRHRLGPNYLQIPVNCPYRARVANYQRDGPMCMMDNQGGAPNYYPNSFSAPEHQPSALEHRTHFSGDVQRFNSANDDNVTQVRTFYLKVLNEEQRKRLCENIAGHLKDAQLFIQKKAVKNFSDVHPEYGSRIQALLDKYNEEKPKNAVHTYVQHGSHLSAREKANL |  | approx. 10 fold over background | 79 units | 66 U |
| catalase: Bovine catalase (Sigma), used alone without the cholesterol-PEG5000-FITC linker; antioxidant enzyme (protein, listed as Bos taurus) MADNRDPASDQMKHWKEQRAAQKPDVLTTGGGNPVGDKLNSLTVGPRGPLLVQDVVFTDEMAHFDRERIPERVVHAKGAGAFGYFEVTHDITRYSKAKVFEHIGKRTPIAVRFSTVAGESGSADTVRDPRGFAVKFYTEDGNWDLVGNNTPIFFIRDALLFPSFIHSQKRNPQTHLKDPDMVWDFWSLRPESLHQVSFLFSDRGIPDGHRHMNGYGSHTFKLVNANGEAVYCKFHYKTDQGIKNLSVEDAARLAHEDPDYGLRDLFNAIATGNYPSWTLYIQVMTFSEAEIFPFNPFDLTKVWPHGDYPLIPVGKLVLNRNPVNYFAEVEQLAFDPSNMPPGIEPSPDKMLQGRLFAYPDTHRHRLGPNYLQIPVNCPYRARVANYQRDGPMCMMDNQGGAPNYYPNSFSAPEHQPSALEHRTHFSGDVQRFNSANDDNVTQVRTFYLKVLNEEQRKRLCENIAGHLKDAQLFIQKKAVKNFSDVHPEYGSRIQALLDKYNEEKPKNAVHTYVQHGSHLSAREKANL | able to rescue the loss of motility |  |  | 44 U |
